According to patent publication US20130143238A1 (BAXTER HEALTHCARE S A, published 2013):

T1: human cluster designation 34 (CD34) antigen on the surface of TF-1 cells (human, UniProt P28906 32-385)
T1 construct: whole, on cells; native on TF-1 cells; also called CD34 membrane-protein; CD34-receptor
T1 sequence (looked up): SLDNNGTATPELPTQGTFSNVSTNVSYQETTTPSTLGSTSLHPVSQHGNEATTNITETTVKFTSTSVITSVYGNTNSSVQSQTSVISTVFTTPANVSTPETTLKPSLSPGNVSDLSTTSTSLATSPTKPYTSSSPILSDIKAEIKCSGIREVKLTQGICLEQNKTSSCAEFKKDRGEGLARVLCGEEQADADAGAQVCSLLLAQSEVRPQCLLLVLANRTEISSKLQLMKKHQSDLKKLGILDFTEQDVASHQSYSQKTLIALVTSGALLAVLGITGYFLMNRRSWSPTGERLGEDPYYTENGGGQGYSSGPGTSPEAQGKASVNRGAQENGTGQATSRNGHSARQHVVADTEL

B1: recombinant anti-CD34 antibody transiently expressed in HEK293T cells (co-transfection of pCMV-9C5lc and pCMV-9C5hc) (antibody, V domains shown)
VH: EVQLQQSGPELVKPGASVKISCKASGYSFIGYFMNWVMQSHGRSLEWIGRINPYNGYTFYNQKFKGKATLTVDKSSSTAHMELRSLASEDSAVYYCARHFRYDGVFYYAMDYWGQGTSVTVSS
VL: QLVLTQSSSASFSLGASAKLTCTLSSQHSTFTIEWYQQQPLKPPKYVMDLKKDGSHSTGDGVPDRFSGSSSGADRYLSISNIQPEDEATYICGVGDTIKEQFVYVFGGGTKVTVLG
notes: Tested as conditioned medium and as purified antibody, captured on plates coated with anti-mouse IgG; also called anti-CD34 9C5 antibody; transiently expressed recombinant anti-CD34 antibody
B2: hybridoma-derived anti-CD34 antibody secreted by the mouse hybridoma cell line 9C5/9069 (antibody, V domains shown)
VH: B1 VH
VL: B1 VL
notes: also called hybridoma supernatant

Legend:
[1] = molecular target: T1, human cluster designation 34 (CD34) …; assay: cell capture assay, conditioned medium of HEK293T cells, TF-1 cells, luminescence
Method: (§1) 96-well microplates (Maxisorp, Nalge Nunc) were coated with polyclonal anti-mouse IgG antibody developed in goats (Jackson Immuno Research, Suffolk, UK) or in sheep (Baxter Oncology, Halle, Germany). After washing with PBS, either conditioned medium containing the anti-CD34 antibody was added and incubated overnight at 4° C. or purified antibody was diluted in DMEM medium (Invitrogen/Gibco, Lofer, Austria) supplemented with 10% FCS (PAA Laboratories, Pasching, Austria) and 1% penicillin/streptomycin (Invitrogen/Gibco) prior to incubation. Subsequently, plates were washed with PBS and TF-1 cells (ATCC CRL-2003) were added at a cell density of 1×10⁵ cells/mL. TF-1 cells were cultivated in RPMI medium (Invitrogen/Gibco). The bound anti-CD34 antibody captures the TF-1 cells by binding to the CD34 present on the surface of the cells. After washing steps to remove the unbound cells, the Cell Titer-Glo reagent from the CellTiter-Glo Luminescent Cell Viability Assay Kit (Promega, Mannheim, Germany) was added. This reagent gives a luminescence signal proportional to the number of viable cells based on an ATP-dependent luciferase reaction (FIG. 3).
The expression of mouse IgG was first verified by the Easy Titer Mouse IgG Assay (Pierce) according to the manufacturer's instructions. To test the functionality of the antibodies the supernatants were tested in the cell capture assay. […]

[2] = molecular target: T1, human cluster designation 34 (CD34) …; assay: cell capture assay, dilution series of purified antibody, TF-1 cells
Method: as §1
Furthermore, in a large scale expression experiment 23 triple flasks (Nunclon Surface, Nalge Nunc) and one cell factory (Nalge Nunc) were co-transfected and incubated for three weeks. […]

binding result [1] | binding result [2] | Binder
binds | – | B1
– | binds | B2
